Experiments:
Human IDO1 = Human IDO1 (UniProt P14902); test: ELISA
[1] = target: His-tagged IDO1 human recombinant protein (71182, BPS Biosciences) (UniProt P14902); test: ELISA
Sequence of His-tagged IDO1 human recombinant protein (71182, BPS Biosciences) (P14902 2-403): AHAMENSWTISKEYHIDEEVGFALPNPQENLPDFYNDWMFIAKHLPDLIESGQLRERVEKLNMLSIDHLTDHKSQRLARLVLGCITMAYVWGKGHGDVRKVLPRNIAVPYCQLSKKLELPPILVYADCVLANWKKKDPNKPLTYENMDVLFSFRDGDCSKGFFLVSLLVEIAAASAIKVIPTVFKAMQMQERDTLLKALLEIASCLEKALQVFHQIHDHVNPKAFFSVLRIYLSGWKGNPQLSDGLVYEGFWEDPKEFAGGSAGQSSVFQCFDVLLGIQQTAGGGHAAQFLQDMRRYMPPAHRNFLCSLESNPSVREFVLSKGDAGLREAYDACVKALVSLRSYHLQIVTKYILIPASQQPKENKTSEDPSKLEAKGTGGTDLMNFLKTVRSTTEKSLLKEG

Sequence of Human IDO1 (P14902 2-403): as above

| EC50 (Human IDO1) [µM] | EC50 [1] [µM] | Substance |
| --- | --- | --- |
| 0.113 |  | yray |
| 0.079 |  | w--ray |
|  | 0.104 | Biotin-PEG3-Cy(nlf(Me-Trp)a) |
| 0.096 |  | ww(F-Phe) |

— patent US20180355003A1
